Assay results as given in patent publication US20200407722, “DNA APTAMER […] BINDING TO TB7.7, AND USE […]” (MD APTUS INC., published 2020).

How the values were obtained:
TB7.7 = target: T1, TB7.7 (Mycobacterium tuberculosis H37Rv, UniProt P9WJ11 P9WJ11:1-81); assay: fluorescence of Cy3-aptamer bound to TB7.7 magnetic beads; 20 mM Tris, 50 mM NaCl, 5 mM KCl, 5 mM MgCl2, pH 8.0; conditions: tags: His6-tag, pET32a vector, expressed in E. coli BL21(DE3); label: Cy3
T1 sequence: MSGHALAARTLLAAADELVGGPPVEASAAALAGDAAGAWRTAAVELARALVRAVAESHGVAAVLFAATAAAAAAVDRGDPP
Procedure: 16 μg of TB7.7 was mixed with 10 μL of magnetic beads, and then incubated in 100 μL of a binding buffer (20 mM Tris, 50 mM NaCl, 5 mM KCl, 5 mM MgCl₂, pH 8.0) for 1 hour. To separate unbound TB7.7, washing was performed twice with a binding buffer. Subsequently, the resulting mixture was incubated together with various concentrations of a Cy3-labeled aptamer for an hour, and an unbound aptamer was removed by washing. The amount of Cy3-labeled ssDNA aptamer bound to the magnetic beads with TB7.7 immobilized thereon was measured by fluorescence measurement (1420 Victor Multilabel counter, PerkinElmer, USA) by separating only Cy3-labeled ssDNA bound to TB7.7.

CFP10 = CFP10 (Mycobacterium tuberculosis, UniProt P9WNK5 P9WNK5:2-100); assay: impedance biosensor, 10 pM protein in PBS; aptamer taken as TG4
Source text: (§1) At this time, each protein was mixed at a concentration of 10 pM with PBS and used for detection.

ESAT6 = ESAT6 (Mycobacterium tuberculosis, UniProt P9WNK7 P9WNK7:2-95); assay: as above
Source text: as §1

B1: TG5 (ssDNA)
DNA: CACCTAATACGACTCACTATAGCGGATCAGAATTTCTGTAATTAAGCGATAAATTGCTTAATAGGCACTCTCTGGCTCGAACAAGCTTGC
Kd (TB7.7): 106 nM

B2: TG6 (ssDNA)
DNA: CACCTAATACGACTCACTATAGCGGATCCGACACGAAGGATACTCAGTAGTACCCAGGTTGGTAGGGTAGCCTGGCTCGAACAAGCTTGC
Kd (TB7.7): 34.3 nM

B3: TG4 (ssDNA)
DNA: CACCTAATACGACTCACTATAGCGGATCCGAAAGTTGTTAGTAGACTTAGGGGAGGGTTAAAGTGGGGTGGCTGGCTCGAACAAGCTTGC
Kd (TB7.7): 37.5 nM

B4: TG4 immobilized on gold electrode (ssDNA)
DNA: CACCTAATACGACTCACTATAGCGGATCCGAAAGTTGTTAGTAGACTTAGGGGAGGGTTAAAGTGGGGTGGCTGGCTCGAACAAGCTTGC
binding result (CFP10): no binding | binding result (ESAT6): no binding
